Data taken from patent publication US20210396758A1 (AMLO BIOSCIENCES, published 2021).
Blank lines part the entries; values can stand above or below the binder they belong to. Ends that are not written are not given here.

Assays:
[1] = biological target: T1, N1-CD33-His6 (the ectodomain of human CD33 fused to the N1 domain of the g3p filamentous phage M13) (filamentous phage M13; human, UniProt P20138 18-259); assay: QC ELISA, purified Fab on immobilized control protein; signal (x-fold) over background
T1 construct: extracellular domain; not shown: N1 domain of g3p of filamentous phage M13

[2] = biological target: T1, N1-CD33-His6 (the ectodomain of human …); assay: QC ELISA of the chimeric human/mouse IgG1 antibody on immobilized control protein; signal over background
[3] = biological target: T2, Ambra-1 peptide (synthesized peptide to which anti-Ambra-1 antibodies were raised) (human, not fully specified); assay: QC ELISA of the chimeric human/mouse IgG1 antibody on immobilized Ambra-1 peptide conjugates Amb1-TRF and Amb1-BSA; signal over background
T2 construct: Tested in ELISA in native and denatured form; also called Ambra-1 antigen
T2 peptide: CGGSSRGDAAGPRGEPRNR

[4] = biological target: T3, human Ambra-1 (human, UniProt Q9C0C7 1-1298); assay: automated immunohistochemistry (Ventana Benchmark XT), chimeric mouse IgG1 format
T3 construct: the protein stood in tissue sections (immunohistochemistry)
T3 sequence: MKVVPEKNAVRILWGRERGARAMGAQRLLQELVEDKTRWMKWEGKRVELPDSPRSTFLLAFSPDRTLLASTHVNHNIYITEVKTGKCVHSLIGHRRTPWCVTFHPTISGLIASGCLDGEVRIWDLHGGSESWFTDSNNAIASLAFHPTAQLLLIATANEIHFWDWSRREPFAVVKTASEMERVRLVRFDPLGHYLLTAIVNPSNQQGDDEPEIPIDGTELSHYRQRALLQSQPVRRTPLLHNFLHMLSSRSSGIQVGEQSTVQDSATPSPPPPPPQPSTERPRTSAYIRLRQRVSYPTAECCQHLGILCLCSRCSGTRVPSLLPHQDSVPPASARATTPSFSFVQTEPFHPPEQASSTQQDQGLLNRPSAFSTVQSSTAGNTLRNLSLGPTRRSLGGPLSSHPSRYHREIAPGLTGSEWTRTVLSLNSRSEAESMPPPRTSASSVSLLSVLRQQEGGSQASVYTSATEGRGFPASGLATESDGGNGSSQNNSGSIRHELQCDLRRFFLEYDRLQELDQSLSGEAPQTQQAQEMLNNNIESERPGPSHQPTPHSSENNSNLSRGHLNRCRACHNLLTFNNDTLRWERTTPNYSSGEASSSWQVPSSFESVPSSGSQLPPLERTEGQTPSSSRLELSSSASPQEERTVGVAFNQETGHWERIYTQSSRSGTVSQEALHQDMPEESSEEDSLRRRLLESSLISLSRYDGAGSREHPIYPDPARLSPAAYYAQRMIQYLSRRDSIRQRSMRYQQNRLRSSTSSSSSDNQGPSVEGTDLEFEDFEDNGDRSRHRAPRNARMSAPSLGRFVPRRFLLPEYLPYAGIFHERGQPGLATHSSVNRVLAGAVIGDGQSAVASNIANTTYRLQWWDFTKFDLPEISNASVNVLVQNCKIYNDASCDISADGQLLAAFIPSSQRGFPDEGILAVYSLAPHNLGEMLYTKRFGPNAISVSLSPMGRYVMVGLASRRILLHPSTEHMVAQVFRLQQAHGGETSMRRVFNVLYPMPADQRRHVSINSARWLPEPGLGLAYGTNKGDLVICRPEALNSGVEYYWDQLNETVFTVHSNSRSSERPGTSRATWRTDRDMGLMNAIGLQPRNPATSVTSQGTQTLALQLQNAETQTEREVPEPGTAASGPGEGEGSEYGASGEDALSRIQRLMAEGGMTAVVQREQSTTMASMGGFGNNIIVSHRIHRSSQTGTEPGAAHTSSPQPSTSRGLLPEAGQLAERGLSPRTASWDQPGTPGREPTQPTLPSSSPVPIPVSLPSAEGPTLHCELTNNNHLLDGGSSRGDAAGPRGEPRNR

[5] = biological target: T1, N1-CD33-His6 (the ectodomain of human …); assay: QC ELISA of the chimeric human/mouse IgG1 antibody on immobilized control protein; signal over background; remark: listed apart in the source

T1 sequence (P20138 18-259, tags left off): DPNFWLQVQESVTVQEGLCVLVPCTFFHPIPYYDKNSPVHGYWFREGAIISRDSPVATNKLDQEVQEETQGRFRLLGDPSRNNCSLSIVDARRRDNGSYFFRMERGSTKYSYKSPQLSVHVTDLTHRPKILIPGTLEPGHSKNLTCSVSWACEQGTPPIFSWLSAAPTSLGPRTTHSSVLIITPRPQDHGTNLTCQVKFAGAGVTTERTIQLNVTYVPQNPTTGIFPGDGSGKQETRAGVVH

binding result [1]: no binding
B1: HuCAL recombinant monoclonal antibody fragment against human Ambra-1, AbD33473.1, bivalent Fab (Fab-A-FH) (Fab)
heavy: EVQLVQSGAEVKKPGESLKISCKGSGYSFSSYWIHWVRQMPGKGLEWMGTIFPSRSYTTYSPSFQGQVTISADKSISTAYLQWSSLKASDTAMYYCARDTPSTALKSPFDYWGQGTLVTVSSASTKGPSVFPLAPSSKSTSGGTAALGCLVKDYFPEPVTVSWNSGALTSGVHTFPAVLQSSGLYSLSSVVTVPSSSLGTQTYICNVNHKPSNTKVDKKVEPKSRTPEMPVLENRAAQGDITAPGGARRLTGDQTAALRDSLSDKPAKNIILLIGDGMGDSEITAARNYAEGAGGFFKGIDALPLTGQYTHYALNKKTGKPDYVTDSAASATAWSTGVKTYNGALGVDIHEKDHPTILEMAKAAGLATGNVSTAELQDATPAALVAHVTSRKCYGPSATSEKCPGNALEKGGKGSITEQLLNARADVTLGGGAKTFAETATAGEWQGKTLREQAQARGYQLVSDAASLNSVTEANQQKPLLGLFADGNMPVRWLGPKATYHGNIDKPAVTCTPNPQRNDSVPTLAQMTDKAIELLSKNEKGFFLQVEGASIDKQDHAANPCGQIGETVDLDEAVQRALEFAKKEGNTLVIVTADHAHASQIVAPDTKAPGLTQALNTKDGAVMVMSYGNSEEDSQEHTGSQLRIAAYGPHAANVVGLTDQTDLFYTMKAALGLKDYKDDDDKHHHHHH
light: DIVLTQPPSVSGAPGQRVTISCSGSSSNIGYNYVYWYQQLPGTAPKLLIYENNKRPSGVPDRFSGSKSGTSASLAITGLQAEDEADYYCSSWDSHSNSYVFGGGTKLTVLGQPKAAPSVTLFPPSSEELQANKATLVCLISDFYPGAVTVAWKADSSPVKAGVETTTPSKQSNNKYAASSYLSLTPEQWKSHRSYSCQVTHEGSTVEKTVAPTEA
notes: domain: alkaline phosphatase dimerization domain

binding result [2]: no binding
B2: AbD33047 full length chimeric antibody against human Loricrin with an IgG1 mouse Fc region (antibody, V domains shown)
VH: QVQLVQSGAEVKKPGASVKVSCKASGYTFNDYYIHWVRQAPGQGLEWMGVISPNSGKTNYAQKFQGRVTMTRDTSISTAYMELSRLRSEDTAVYYCARDLYPDSSAFDIWGQGTLVTVSS
VL: DIELTQPPSVSVSPGQTASITCSGDNLGDKYAHWYQQKPGQAPVLVIYDDNERPSGIPERFSGSNSGNTATLTISGTQAEDEADYYCQSYDSGNRVFGGGTKLTVLG
notes: also called recombinant monoclonal antibody AbD33047; HuCAL antibody AbD33047

binding result [3]: binds | binding result [4]: binds | binding result [5]: no binding
B3: AbD33473 full length chimeric antibody against human Ambra-1 with an IgG1 mouse Fc region (antibody, V domains shown)
VH: EVQLVQSGAEVKKPGESLKISCKGSGYSFSSYWIHWVRQMPGKGLEWMGTIFPSRSYTTYSPSFQGQVTISADKSISTAYLQWSSLKASDTAMYYCARDTPSTALKSPFDYWGQGTLVTVSS
VL: DIVLTQPPSVSGAPGQRVTISCSGSSSNIGYNYVYWYQQLPGTAPKLLIYENNKRPSGVPDRFSGSKSGTSASLAITGLQAEDEADYYCSSWDSHSNSYVFGGGTKLTVLG
notes: also called recombinant monoclonal antibody AbD33473; HuCAL antibody AbD33473
